Laboratory results from patent publication US20070185028A1, “Compositions and methods for treatment of protein misfolding and protein aggregation diseases” (priority 2004, published 2007).

Assays:
Format in all cases: biochemical
β2-microglobulin (β2m) = biological target: T1, β2-microglobulin (β2m) (Homo sapiens, UniProt P61769); test: β2-microglobulin fibrillation ThT assay; conditions: 1:1 ratio
T1 construct: purchased MP Biomedical
Experimental: Addition of 5.8 μM αB crystallin peptides, ST, DR, LT, HG, and ER decreased the ThT fluorescence of β2m by 40-64%. When the concentration of the αB crystallin peptides was increased to 29 μM and 145 μM, no further decrease in ThT fluorescence was observed. The negative control peptide AT1 had no effect on β2m fibrillation even at a concentration as high as 290 μM. All five αB crystallin peptides inhibited β2m fibrillation at sub-stoichometric and stoichometric concentrations (5.8 μM and 29 μM).
The Thioflavin T (ThT) fluorescence of β2m in the presence of varying concentrations of αB crystallin peptides and controls was measured. […] When the concentration of the peptides was increased to 29 μM (1:1::peptide:β2m), the αB crystallin peptides decreased the ThT fluorescence by 35-65%. When the concentration of the peptides was increased further to 145 μM ([…]), the αB crystallin peptides decreased the ThT fluorescence by 13-27%. […] The formation and inhibition of β2-microglobulin fibrils was verified microscopically.
β2-microglobulin fibrillation ThT assays were performed as described previously. Raman et al., Biochem J 392:573-81, 2005; Ivanova et al., Proc Natl Acad Sci USA 101:10584-9, 2004. Peptides were dissolved to 2 mM in 0.25% DMSO and diluted accordingly, while β2-microglobulin was dissolved in 25 mM sodium acetate, 25 mM sodium phosphate, pH 2.4. For the 5:1::peptide:β2-microglobulin assay, 10 μL of 430 μM peptide was mixed with 10 μL of 86 μM β2-microglobulin, 7 μl of 25 mM sodium acetate, 25 mM sodium phosphate, pH 2.4 and 3 μL of 1 mM ThT. For the 1:1::peptide:β2-microglobulin assay, 10 μL of 86 μM peptide was mixed with 10 μL of 86 μM (2-microglobulin, 7 μl of 25 mM sodium acetate, 25 mM sodium phosphate, pH 2.4 and 3 μL of 1 mM ThT. For the 1:5::peptide:β2-microglobulin assay, 10 μL of 17.2 μM peptide was mixed with 10 μL of 86 μM β2-microglobulin, 7 μl of 25 mM sodium acetate, 25 mM sodium phosphate, pH 2.4 and 3 μL of 1 mM ThT. ThT fluorescence was measured using a Perkin Elmer Victor^3 V plate reader. Assays were performed in 384-well fluorescence plates in duplicates or triplicates. Samples were incubated at 37° C. ThT fluorescence was measured continuously for 180 minutes. The effect of the peptides and APS was calculated as percentage fibril formation relative to β2-microglobulin alone (100%) at the end of 180 minutes.

amyloid beta (1-42) = amyloid beta (1-42) (Homo sapiens, UniProt P05067); test: Cu+++-induced aggregation of amyloid beta (1-42), light scattering 360 nm; conditions: 100 mM Cu+++
Experimental: In vitro assays were also performed to measure the ability of the human αB crystallin derived peptides identified in Example 1 to inhibit aggregation of Cu^+++-induced amyloid beta (1-42) aggregation. Aggregation assays were performed using routine procedures, in the presence or absence of a synthesized peptide identified in Example 1, in the presence of 100 mM Cu^+++. Aggregation was measured spectrophotometrically as light scattering at a wavelength of 360 nm. Aggregated amyloid-beta was assigned a value of 100% aggregation and used to normalize aggregation in the presence of synthesize peptides.
Aggregation was measured spectrophotometrically as light scattering at a wavelength of 360 nm. Aggregated amyloid-beta was assigned a value of 100% aggregation and used to normalize aggregation in the presence of synthesize peptides. Aggregation was plotted as a bar graph with the standard error for duplicate experiments. The 1 st vertical bar is the scattering measured for aggregated amyloid-beta (100% aggregation) in the presence of 100 mM Cu^+++. The 2nd-4th vertical bars is the scattering from amyloid-beta in the presence of wild type recombinant human αB crystallin. The 5th-13th vertical bars are the scattering of amyloid-beta in the presence of the synthetic peptides, DRFSVNLDVKHFS or LTITSSLSDGV or HGKHEERQDE at selected concentrations. A prefix of 10× represents a 10:1 molar concentration of amyloid-beta to either wild type αB crystallin or its peptides. A prefix of 1× represents a 1:1 molar concentration of amyloid-beta to either wt αB crystallin or its peptides. A prefix of 0.1× represents a 1:10 molar concentration of amyloid-beta to either wt αB crystallin or its peptides.

ADH = ADH (Equus caballus, UniProt P00327); test: Chaperone assay, thermal aggregation of ADH at 50° C.; conditions: 50:1 molar ratio of peptide:ADH, sixty minutes, 340 nm
Chain of ADH (P00327 whole entry): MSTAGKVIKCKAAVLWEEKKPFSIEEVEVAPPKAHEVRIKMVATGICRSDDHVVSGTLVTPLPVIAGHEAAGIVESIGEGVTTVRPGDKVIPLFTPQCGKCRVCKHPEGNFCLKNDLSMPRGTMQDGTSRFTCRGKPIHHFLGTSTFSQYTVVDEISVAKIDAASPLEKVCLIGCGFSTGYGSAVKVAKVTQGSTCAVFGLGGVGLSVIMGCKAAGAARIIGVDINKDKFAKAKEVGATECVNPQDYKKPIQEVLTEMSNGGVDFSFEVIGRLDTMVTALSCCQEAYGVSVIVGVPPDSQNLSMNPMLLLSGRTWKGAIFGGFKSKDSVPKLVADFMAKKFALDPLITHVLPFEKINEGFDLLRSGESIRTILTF
Experimental: (§1) The chaperone activity of the peptides was measured as their ability to protect against the thermal aggregation of three chaperone target proteins βH crystallin, ADH and CS in chaperone assays performed at 50° C. (FIG. 19). A non-interactive αB crystallin sequence 111HGKHEERQDE120 was used as the negative control in the chaperone assays (FIG. 19). Based on near and far UVCD, the three target proteins unfolded in the order: CS>>>ADH>>βH crystallin when they were heated at 50° C. for sixty minutes (FIGS. 15 and 16). The thermal aggregation of βH crystallin, ADH and CS was measured as light scattering at λ=340 nm in the presence and absence of each peptide. The chaperone activity of each peptide was calculated as percent protection in which the aggregation of each target protein in the absence of any peptides was set at 0% protection (FIG. 19). The interactive peptides […] and 131LTITSSLSDGV141 were effective inhibitors of aggregation of all three chaperone target proteins.
(§2) A (top left): thermal aggregation of chaperone target proteins βH crystallin, ADH and CS in the absence of peptides was measured as light scattering at λ=340 nm. Each target protein was heated at 50° C. for sixty minutes in the absence or presence of one of the peptides. […] The chaperone activity of each peptide was calculated as percent protection in which the aggregation of each target protein in the absence of any peptides was set at 0% protection. The ability of the 73DRFSVNLDVKHFS85, 131LTITSSLSDGV141 and 111HGKHEERQDE120 to protect against the thermal aggregation of βH crystallin (B: top right), ADH (C: bottom left) and CS (D: bottom right) were tested in vitro (vertical bars). […] A 10:1 molar ratio of peptide:target protein was sufficient in conferring significant protection against the aggregation of CS by 73DRFSVNLDVKHFS85 and 131LTITSSLSDGV141.

βH crystallin = test: Chaperone assay, thermal aggregation of βH crystallin at 50° C.; conditions: 50:1 molar ratio of peptide:βH crystallin, sixty minutes, 340 nm
Experimental: as §1, §2

T1 sequence (P61769 21-119): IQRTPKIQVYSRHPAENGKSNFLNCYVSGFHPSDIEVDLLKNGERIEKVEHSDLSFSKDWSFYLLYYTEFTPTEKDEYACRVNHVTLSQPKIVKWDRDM

| Substance | inhibition of β2-microglobulin fibril formation, HG derived peptides (β2-microglobulin (β2m)) | prevention of Cu+++-induced aggregation of amyloid-beta (amyloid beta (1-42); 1:1 and 1:10 molar ratio of amyloid-beta to peptide) | prevention of Cu+++-induced aggregation of amyloid-beta (amyloid beta (1-42); 10:1 molar ratio of amyloid-beta to peptide) | percent protection against thermal aggregation of ADH (ADH) | percent protection against thermal aggregation of βH crystallin (βH crystallin) |
| --- | --- | --- | --- | --- | --- |
| EERQ | ~100% | – | – | – | – |
| LTITSSLSDGV | – | equally effective | less effective | approximately 30% | approximately 30% |
| RQDE | ~100% | – | – | – | – |
